Experimental findings from the nanobody polyreactivity screen of Harvey et al. (2022) are described below.

This series in a line: yeast display, Sf9 membrane polyspecificity reagent, FACS + sequencing; frameworks hold sequencing errors. The procedure, abridged: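 A synthetic nanobody library was expressed on Saccharomyces cerevisiae BJ5465 by galactose induction for 36–48 hours. The library was stained for 1 hour at 4 °C with 10% biotinylated, detergent-solubilized Sf9 membrane reagent and enriched with streptavidin microbeads before FACS. Low and high (top ~1%) gates were set on anti-HA fluorescence for expression and streptavidin fluorescence for reagent binding, and each polyreactivity label reflects the gate of origin.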
For “QVQLVESGGGLVQAGGSLRLSCAAYGITFDANAMGWYRQAPGKERELVARISSGGSTNYADSVKGRFTISRDNAKNTVYLQMNSLKPEDTAVYYCAAERIARPTFDYWGQGTQVTVSS”, the “polyreactivity (PSR sort gate)” value is “low polyreactivity”.

Take “QVQLVESGGGLVQAGGSLRLSCAAYGITFRVNPMGWYRQAPGKERELVAAISRGGGSTSYADSVMGRFTISRDNAKNTFYLQMNSLKPEDTAVYFCAREPLAYYVARYDYWGQGTQVTVSS”: the “polyreactivity (PSR sort gate)” value is recorded as “high polyreactivity”.

As to “QVQLVESGGGLVQAGGSLRLSCAAYGITFYRNAMGWYRQAPGKEMELVAAITWNGGRTYYADSVKGRFTISRDNAKNTVYLQMNSLKPEDTAVYYCAADSGTLNLASYRYYYWGQGTQVTVSS”, the “polyreactivity (PSR sort gate)” value is recorded as “low polyreactivity”.

Regarding “QVQLVESGGGLVQAGGSLRLSCAAYGLTFPYYVMGWYRPAPGKERELVAAISSSGGSTYYADSVKGRFTISRDNAKNTVYLQMNSLKPEDTAVYYCAAVEIYLAYDLPYWSEMDYWGQGTQVTVSS”, the “polyreactivity (PSR sort gate)” value was “low polyreactivity”.

With “QVQLVESGGGLVQAGGSLRLSCAAYGNIFYVYVMGWYRQAPGKERELVASITSGASTYYADSVKGRFTISRDNAKNTVYLQMNSLKPEDTAVYYCAAEALGGAGDYSTLYIYDYWGQGTQVTVSS”, the “polyreactivity (PSR sort gate)” value is recorded as “low polyreactivity”.

Take “QVQLVESGGGLVQAGGSLRLSCAAYGRIFGWYAMGWYRQAPGKERELVAAISSSTSTYYADSVKGRFTISRDNEKNTVYLQMNSLKPEDTAVYYCNADWYYQRVQYYWYRYDYWGQGTQVTVSS”: the “polyreactivity (PSR sort gate)” value was “high polyreactivity”.

Turning to “QVQLVESGGGLVQAGGSLRLSCAAYGRIFKYYVMGWYRQAPGKERELVATISSGSGTNYADSVKGRFTISRDNAKNTVYLQMNSLKPEDTAVYYCAARWTPRVRGYNYWGQGTLVTVSS”, the “polyreactivity (PSR sort gate)” value was “high polyreactivity”.

Consider “QVQLVESGGGLVQAGGSLRLSCAAYGRIFSYYAMGWYRQAPGKERELVAASSGNGGSTYYADSVKGRFTISRDHAKNTVYLQMNSLKPEDTAVYYCAAVWWSSDWASLYPYSYDHWGQVTQVTVSS”, for which the “polyreactivity (PSR sort gate)” value was “low polyreactivity”.

For the sequence “QVQLVESGGGLVQAGGSLRLSCAAYGRIIRWYARGWYRPSPGKERALVAAISWSGGSTYYADSVKGRFTISRDNAKNTVYLQLNSLKPEDTAVYYCNTVYAEYDYSTVDYWGQGTQVTVSS”, the “polyreactivity (PSR sort gate)” value is “high polyreactivity”.

For “QVQLVESGGGLVQAGGSLRLSCAAYGRTFGRYAMGCYRPAPGKERELVAAITVGGGSKYYADSVKGRFTISRDNAKNTVYLQMNSLKPEDTAVYYCNALHTYTYRYDYYYWGQGTQVTVSS”, the “polyreactivity (PSR sort gate)” value was “high polyreactivity”.

As for “QVQLVESGGGLVQAGGSLRLSCAAYGRTFNPYAMGWYRQAPGKERELVARITWSGGRTYYADSVKGRFTISRDNAKNTVYLQMNSLKPEDTAVYYCAARYSKYLYGRFESWGQGTQVTVSS”, the “polyreactivity (PSR sort gate)” value was “high polyreactivity”.

Turning to “QVQLVESGGGLVQAGGSLRLSCAAYGRTFTTNAMGWYRQAPGKERELVAAISRLGGSTYYADSVKGRFTISRDNAKNTVYLQMNSLKPEDTAVYYCYAHLWIRGYDYWGQGTQVTVSS”, the “polyreactivity (PSR sort gate)” value was “high polyreactivity”.

Regarding “QVQLVESGGGLVQAGGSLRLSCAAYGRTFTWYSMGWYRQAPGKERELVAAISKSGGSTYYSDSVKGRFTISRDNAKITVYLQMNSLKPEDTAVYYCNAEFYGYFLGYGYWGQGTQVSVSS”, the “polyreactivity (PSR sort gate)” value is on record as “low polyreactivity”.

Regarding “QVQLVESGGGLVQAGGSLRLSCAAYGRTLGYYAMGWYRPAPGQERELVAAITGSDGSTYADSVKGRFTISRDNAKNTVYLQMNSLKPEDTAVYYCNSKNEHGSLGFDYWGQGTQVTVSS”, the “polyreactivity (PSR sort gate)” value is reported as “high polyreactivity”.

As for “QVQLVESGGGLVQAGGSLRLSCAAYGSIFDSNTMGWYRQAPGKERELVAGISTGGSTNYADSVKGRFTISRDNAKNTVYLQMNSQKPEDTAVYYCNADLGSSYDWGQGTQVTVSS”, the “polyreactivity (PSR sort gate)” value is given as “low polyreactivity”.

As to “QVQLVESGGGLVQAGGSLRLSCAAYGSIFYSYAMGWYRQAPGKERELVASIRIGSSTNYADSVKGRFTISRDNAKNTVYLQMNSLKPEDSAVYYCAARRFYKYYYGSDYWGQGTQVTVSS”, the “polyreactivity (PSR sort gate)” value is listed as “high polyreactivity”.

Regarding “QVQLVESGGGLVQAGGSLRLSCAAYGSIIRRYAMGWYRQAPGKERELVATISSGSRTYYADSVKGRFTISRDNAKNTVYLQMNSLKPEDTAVYYCNARSRRVGLTLYNYWGQGTQVTVSS”, the “polyreactivity (PSR sort gate)” value is “high polyreactivity”.

“QVQLVESGGGLVQAGGSLRLSCAAYGSIIVRYAMGWYGQAPGKVRELVPTITFRDTSTYYADSVKGRFTSSRDNAKNTVYLQMNSLKPEDSAVYYCNAHIPTNRSYVPAVRGEDDYWGQGTQVTVSS”: the “polyreactivity (PSR sort gate)” value was “low polyreactivity”.

As for “QVQLVESGGGLVQAGGSLRLSCAAYGSIRNFYAMGWNRKAPGKERELVPTISSGGNTHYADSVKGRFTISRDNAKNTVYFQMTSLKPEDTAVYYCNKVTIGGFFWYRAYDYWGQGTQVTVSS”, the “polyreactivity (PSR sort gate)” value is listed as “low polyreactivity”.

For the sequence “QVQLVESGGGLVQAGGSLRLSCAAYGSTFGDYAMGWYRQAPGKERELVAAITIGGITTYADSVKGRFTISRDNAKNTVYLQMNSLKPEDTAVYYCADAERGDWDDYWGQGTQVTVSS”, the “polyreactivity (PSR sort gate)” value is “low polyreactivity”.

For the sequence “QVQLVESGGGLVQAGGSLRLSCAAYGSTFGWYTMGWYRQAPGKERELVATISYGGGITNYADSVKGRFTISRDNAKITVYLQMNSLKPEDTADYDCAVDNTGRSWPYDYWGQGTQVTVSS”, the “polyreactivity (PSR sort gate)” value is “low polyreactivity”.

In the case of “QVQLVESGGGLVQAGGSLRLSCAAYGSTFNYKAMAWYRQAQGKERELVATITTSGGSTYYADSVKGRFTISRDNAKNTVYLQMNSLKPEDTAVYYCAARYPWSVYRIYGAHYDYWGQGTLVTVSS”, the “polyreactivity (PSR sort gate)” value is “low polyreactivity”.

Regarding “QVQLVESGGGLVQAGGSLRLSCAAYGSTLATNAMGWYRPAPGKERELVAYADSVKGRFTISRDNAKNTVYLQMNSLKPEDTAVYYCAKDALVIDGGGGYDYWGQGTQVTVSS”, the “polyreactivity (PSR sort gate)” value is “low polyreactivity”.

In the case of “QVQLVESGGGLVQAGGSLRLSCAAYGSTLLTYTMGWYRQAPGKERELVASITTSGGSTYYADSVKGRFTISRDNAKNTVYLQMNSLKPEDTAVYYWGQGTQVTVSS”, the “polyreactivity (PSR sort gate)” value was “low polyreactivity”.

Turning to “QVQLVESGGGLVQAGGSLRLSCAAYGYTFRGYAMGRYRQAPGKEREFVAAINWSDGSTYYADSVKGRFTISRDNAKNTVYLQMNSLKPEDTAVYYCNADQYYRFPDNYLGQGTQVTVSS”, the “polyreactivity (PSR sort gate)” value is “low polyreactivity”.

Turning to “QVQLVESGGGLVQAGGSLRLSCAAYYAMGWYRQAPVKERELVAAISSTGRTNYADSVKGRFTISRDNAKNTVYLQMNSLKPEDTAVYYCAAEWHYIYAYDYWGQGTQVTVSS”, the “polyreactivity (PSR sort gate)” value was “low polyreactivity”.

In the case of “QVQLVESGGGLVQAGGSLRLSCADSARTFYYNTKGWYRQAPGKERELVASISGSGGRTYYADSVKGRFTISRDNAKNTVYLQMNSLKPEDTAVYYFAAGSIRYRFPFGYDYWGQGTQVTLSS”, the “polyreactivity (PSR sort gate)” value is on record as “high polyreactivity”.

With “QVQLVESGGGLVQAGGSLRLSCADSGFIFAYYVMGWYRQAPGKERELVAAISRGGGSTYYADSVKGRFTISRDNAKYTVYLQMNSLKPEDTAVYYCATYSHALRYDYWGQGTQVTVSS”, the “polyreactivity (PSR sort gate)” value is “high polyreactivity”.

With “QVQLVESGGGLVQAGGSLRLSCADSGFIFPNYGMGSYRQAPGKERELVAYADSVKGRFTISRDNAKNTVYLQMNSLKPEDTAVYYCNADPPYTRWADYWHGGGYWGQGTQVTVSS”, the “polyreactivity (PSR sort gate)” value is “low polyreactivity”.

Consider “QVQLVESGGGLVQAGGSLRLSCADSGFIFSAHAMGGYSQAPGKDRELVAAISRTGGSTYYADSVKGRFTISRDNAKNTVYLQMNSLKPEETAGYYGAAYIRYGGLAYDSNYWGQGTQVTVSS”, for which the “polyreactivity (PSR sort gate)” value is “high polyreactivity”.

For the sequence “QVQLVESGGGLVQAGGSLRLSCADSGFIFVDYVMGWYRQSPGKERELVASISASGGTTYYADSVKGRLTISLDNAKNTVYLQMNSLKPEDTAVYYCNARWSPVNLRYGREGDYWGQGTQVTVSS”, the “polyreactivity (PSR sort gate)” value was “high polyreactivity”.

In the case of “QVQLVESGGGLVQAGGSLRLSCADSGFIFVVKAMGWYRQAPGKEREIVAVISSSTGSTYYADSVKGRFTISRDNAKNTVYLQLNSLKPEDTAVYSCAAASRRRRPLKRMYYWGQGTQVTVSS”, the “polyreactivity (PSR sort gate)” value is on record as “low polyreactivity”.

As to “QVQLVESGGGLVQAGGSLRLSCADSGFIFWYYAMGWYRQAPGKERELVAAISWSGDSTYYADSVKWRFTISRDTANNTVYLQMNSLKPEDTAVYYCAVYDELDVFYNGYDYWGQGTQVTVSS”, the “polyreactivity (PSR sort gate)” value was “high polyreactivity”.

“QVQLVESGGGLVQAGGSLRLSCADSGFILWYNAMGWYRQAPGKERELVARIDVRGGSTYYADSVKGRFTISRDNAKNTVYLQMNSLKPEDTAVYYCARKRQGPASRARYDYWGQGTQVTVSS”: the “polyreactivity (PSR sort gate)” value is on record as “low polyreactivity”.

“QVQLVESGGGLVQAGGSLRLSCADSGFNFKYYAMGWYRQAPGKERELVATITSRGGSTYYADSVKGRFTISRDNAKNTVYLQMNSLKPEATAVYYCNARSSSPGKYGYWGQGTQVTVSS”: the “polyreactivity (PSR sort gate)” value was “high polyreactivity”.

Regarding “QVQLVESGGGLVQAGGSLRLSCADSGFTFFSNAMGWYRQAPGKERELVAAITSSGRSTYADSVKGRYTISRDKAKNTVYLQMNSLKPEDSAVYYCAARRTGYLYRYGYWGQGTQVTVSS”, the “polyreactivity (PSR sort gate)” value is given as “low polyreactivity”.

With “QVQLVESGGGLVQAGGSLRLSCADSGFTFILYAMGWYRQAPGKERELVAAITTSGGRTYYADSVKGRFTISRDNAKNTVYLQMNSLKPEDTAVYYCAAKEYYTPYRRGYWGQGTQVTVSS”, the “polyreactivity (PSR sort gate)” value is given as “high polyreactivity”.

For the sequence “QVQLVESGGGLVQAGGSLRLSCADSGFTFPSYAMGGYRQAPGKERELVDVISRRGGSTYYADSVKGRFTISRDNAKNTVYLQMNSLKPEDTAVYYCARPRQPGSLYGYWGQGTQVTVSS”, the “polyreactivity (PSR sort gate)” value is “high polyreactivity”.

Turning to “QVQLVESGGGLVQAGGSLRLSCADSGFTFPSYTMGWYRQAPGKERDLDASIRVSGGRTYYADSVKGRFTISRDNAKNTVYLQMNSLKPEDTAVYYCAADYMTWWGGRYDYWGQGTQVTVSS”, the “polyreactivity (PSR sort gate)” value is listed as “high polyreactivity”.

Consider “QVQLVESGGGLVQAGGSLRLSCADSGFTFSLNTMGWYRQAPGKERELVAAINSGDSTYADSVKGRFTISRDNAKNTVYLQMNSLKPEDTAVYYCNADPDWWYPYIYWGQGTQVTVSS”, for which the “polyreactivity (PSR sort gate)” value is reported as “low polyreactivity”.

For the sequence “QVQLVESGGGLVQAGGSLRLSCADSGFTFSQYAAIGWYRQAPGKERELVAAINISGSTNYADSVKGRFTISRDNAKNTVYLQMNSLKPEDTAVYYCAAQQSWKIYDYWGLGTQVTVSS”, the “polyreactivity (PSR sort gate)” value is on record as “low polyreactivity”.
